According to patent US20060264378A1 (BIOKINE THERAPEUTICS, published 2006):
Numbered stars: 1 amine (or outer) side, 2 acyl side, 3 side chain; on linkers, the order of the positions; unused ones are H or OH. Bridge positions count the residues as written; N and C are the ends. Square brackets hold non-standard residues; d marks the D form. Ends that are not written are not given here. * marks the point of attachment. deaminoTMG = tetramethylguanyl on 5-aminopentanoyl (deaminoTMG-APA, formula II); guanyl = guanyl, N-terminal group, N=C(N)*; 2Nal = N[C@@H](Cc1ccc2ccccc2c1)C(=O)O; Glutaryl = O=C(CCCC(=O)[*:2])[*:1]; Benzoyl(4-F) = O=C(c1ccc(F)cc1)*; dCit = NC(=O)NCCC[C@@H](N)C(=O)O; Cit = NC(=O)NCCC[C@H](N)C(=O)O; Suc = O=C(CCC(=O)[*:2])[*:1]; Ahx = NCCCCCC(=O)O; Ava = NCCCCC(=O)O

Columns and labels:
CXCR4 receptor [1] = molecular target: T1, CXCR4 receptor (human, UniProt P61073 1-352); test: displacement of 125I-CXCL12 from Jurkat cells, filter binding
T1 construct: whole, on cells; Endogenous receptor on human cells
T1 sequence (P61073 whole entry): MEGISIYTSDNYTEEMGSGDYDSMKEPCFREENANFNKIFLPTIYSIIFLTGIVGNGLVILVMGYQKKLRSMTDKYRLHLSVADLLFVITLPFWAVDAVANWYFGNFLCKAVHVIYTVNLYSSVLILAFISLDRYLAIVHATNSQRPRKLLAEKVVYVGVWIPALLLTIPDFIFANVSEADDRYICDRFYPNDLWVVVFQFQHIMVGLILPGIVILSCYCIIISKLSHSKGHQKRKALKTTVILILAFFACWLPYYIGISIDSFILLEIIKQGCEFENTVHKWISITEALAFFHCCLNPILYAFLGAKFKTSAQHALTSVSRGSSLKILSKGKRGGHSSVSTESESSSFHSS
Description: 50 μL of Jurkat human T-cell leukemia cells (6×10⁶ cells/mL) suspended in buffer (Dulbecco's PBS solution (pH 7.0) containing 0.5% BSA, 20 mM HEPES), 25 μL of test compounds (Table 2: each compound being synthesized in the form of acetate salt) diluted by buffer and 25 μL of 200 p M 125I-CXCL12 solution were respectively dispensed to each well of the plate, and were subjected to fixation reaction for 1 hour at room temperature. After reaction, suction was made toward the reaction solution by 96 well GF/C filter plate, and each well's radioactivity was measured by top count. As the radioactivity index of 100% when the test compound was not added, and 0% when 100 nM of non-radioisotope-labeled CXCL12 was added, the inhibitory activity of each test compound was measured.

[2] = molecular target: CXCR4 on mouse splenocytes (mouse, UniProt P70658 1-359); test: cell-based or functional assay
CXCR4 on mouse splenocytes, sequence (P70658 whole entry): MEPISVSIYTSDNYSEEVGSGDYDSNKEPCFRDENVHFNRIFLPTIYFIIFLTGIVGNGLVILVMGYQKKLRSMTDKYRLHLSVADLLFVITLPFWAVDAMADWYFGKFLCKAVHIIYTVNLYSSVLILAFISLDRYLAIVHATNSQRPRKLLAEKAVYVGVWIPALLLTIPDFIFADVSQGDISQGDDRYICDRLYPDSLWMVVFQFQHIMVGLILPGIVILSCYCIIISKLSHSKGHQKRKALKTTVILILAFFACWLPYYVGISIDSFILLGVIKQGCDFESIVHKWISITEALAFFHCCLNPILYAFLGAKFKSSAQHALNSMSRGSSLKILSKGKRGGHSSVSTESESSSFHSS

CXCR4 receptor [3] = molecular target: T1, CXCR4 receptor; test: cell-based or functional assay

B1: TC14012 (peptide)
peptide: RRXCYXKXPYRXCR
modifications: X at 3 = Nal (L-3-(2-naphthyl)alanine); X at 6 and 12 = Cit (L-citrulline); X at 8 = D-Cit (D-citrulline); disulfide Cys4-Cys13; free N-terminus (H-); C-terminal amide (-NH2)
notes: Tested as acetate salt
Binder B1 has an IC50 (CXCR4 receptor [1]) of 2.7 nM.

B2: TE14004 (peptide)
peptide: H-RR[2Nal]CYRE[dK]PYR[Cit]CR-OH
modifications: disulfide 4-13 (inferred); not fully specified; printed as H-Arg-Arg-Nal-Cys-Tyr-Arg-Glu-DLys-Pro-Tyr-Arg-Cit-Cys-Arg-OH; also: acetate salt
B2 was tested, and the IC50 (CXCR4 receptor [1]) was 6.8 nM.

For [Ahx]RR[2Nal]CYRK[dK]PYR[Cit]CR-OH (disulfide 5-14; also: acetate salt) [TF20], the IC50 (CXCR4 receptor [1]) was 3.5 nM.

{5‑aminopentanoyl}-R[2Nal]CY[Cit]K[dE]PYR[Cit]CR-NH2 (disulfide 3-12; also: acetate salt) [TF7] showed an IC50 (CXCR4 receptor [1]) of 5.7 nM.

Binder {2‑desamino‑arginyl}-R[2Nal]CY[Cit]K[dE]PYR[Cit]CR-NH2 (disulfide 3-12; also: acetate salt) [TF8] has an IC50 (CXCR4 receptor [1]) of 8.2 nM.

B3: TF18 (peptide)
peptide: XRRXCYXKXPYRXCRX
modifications: N-terminal tetramethylguanyl; Nal (L-3-(2-naphthyl)alanine) at 3; Cit (L-citrulline) at 6 and 12; D-Cit (D-citrulline) at 8; disulfide Cys4-Cys13; C-terminal amide (-NH2)
With B3 the IC50 (CXCR4 receptor [1]) was 8 nM.

In the case of {2‑fluorobenzoyl}-RR[2Nal]CY[Cit]K[dE]PYR[Cit]CR-NH2 (disulfide 4-13; also: acetate salt) [TF6], the IC50 (CXCR4 receptor [1]) is reported as 3.9 nM.

{Benzoyl(4-F)}-RR[2Nal]CY[Cit]K[dE]PYR[Cit]CR-NH2 (disulfide 4-13; also: acetate salt) [TF5] was tested, and the IC50 (CXCR4 receptor [1]) was 2.8 nM.

Binder {deaminoTMG-Ava}-R[2Nal]CY[Cit]K[dE]PYR[Cit]CR-NH2 (disulfide 3-12; also: acetate salt) [TF12] has an IC50 (CXCR4 receptor [1]) of 4.6 nM.

With {nelfinaviryl-Suc}-R[2Nal]CY[Cit]K[dE]PYR[Cit]CR-NH2 (disulfide 3-12; also: acetate salt) [TF13] the IC50 (CXCR4 receptor [1]) was 21 nM.

B4: TF19 (peptide)
peptide: XRRXCYXKXPYRXCRX
modifications: N-terminal 6-aminohexanoyl (ACA); Nal (L-3-(2-naphthyl)alanine) at 3; Cit (L-citrulline) at 6 and 12; D-Cit (D-citrulline) at 8; disulfide Cys4-Cys13; C-terminal amide (-NH2)
B4 gave an IC50 (CXCR4 receptor [1]) of 4.5 nM.

In the case of H-RR[2Nal]CYRK[dE]PYR[Cit]CR-OH (disulfide 4-13; also: acetate salt) [TE14005], the IC50 (CXCR4 receptor [1]) is reported as 2.2 nM.

For H-RR[2Nal]CY[Cit]K[dE]PYR[Cit]CR-NH2 (disulfide 4-13; also: acetate salt) [TE14011], the IC50 (CXCR4 receptor [1]) was 2.9 nM.

H-RR[2Nal]CY[dE]K[dCit]PYR[Cit]CR-NH2 (disulfide 4-13 (inferred); also: acetate salt) [TE14012] was tested, and the IC50 (CXCR4 receptor [1]) was 5.4 nM.

guanyl-RR[2Nal]CY[Cit]K[dE]PYR[Cit]CR-NH2 (disulfide 4-13; also: acetate salt) [TF2] was tested, and the IC50 (CXCR4 receptor [1]) was 3.3 nM.

For tetramethylguanyl-RR[2Nal]CY[Cit]K[dE]PYR[Cit]CR-NH2 (disulfide 4-13; also: acetate salt) [TF3], the IC50 (CXCR4 receptor [1]) was 9.6 nM.

Binder H-R[2Nal]CY[Cit]K[dE]PYR[Cit]CR-NH2 (disulfide 3-12; also: acetate salt) [TF17] has an IC50 (CXCR4 receptor [1]) of 79 nM.

B5: TE14003 (peptide)
peptide: H-RR[2Nal]CYEK[dK]PYR[Cit]CR-OH
modifications: disulfide 4-13 (inferred); not fully specified; printed as H-Arg-Arg-Nal-Cys-Tyr-Glu-Lys-DLys-Pro-Tyr-Arg-Cit-Cys-Arg-OH; also: acetate salt
With B5 the IC50 (CXCR4 receptor [1]) was 5 nM.

In the case of {AZT-Glutaryl}-R[2Nal]CY[Cit]K[dE]PYR[Cit]CR-NH2 (disulfide 3-12; also: acetate salt) [TF14], the IC50 (CXCR4 receptor [1]) is reported as 49 nM.

In the case of {Benzoyl(4-F)}-RR[2Nal]CY[Cit]K[dK]PYR[Cit]CR-NH2 (disulfide 4-13; also: acetate salt) [4F-benzoyl-TN14003], the “IC50 of inhibition of SDF-1-induced migration of mouse splenocytes (Transwell)” value [2] is reported as 0.54 nM, the IC50 (CXCR4 receptor [1]) is reported as 0.99 nM and the IC50 of inhibition of SDF-1α-induced migration of Jurkat cells (Transwell) (CXCR4 receptor [3]) is reported as 0.65 nM.

For H-RE[2Nal]CYRK[dK]PYR[Cit]CR-OH (disulfide 4-13; also: acetate salt) [TE14002], the IC50 (CXCR4 receptor [1]) was 680 nM.

H-RR[2Nal]CY[Cit]K[dK]PYR[Cit]CR-NH2 (disulfide 4-13; also: acetate salt, Tested as acetate salt) [TN14003] showed an IC50 (CXCR4 receptor [1]) of 2.6 nM.

B6: TF15 (peptide)
peptide: H-RR[2Nal]CY[Cit]K[dE]PYR[Cit]CR-NH2
modifications: disulfide 4-13; also: reduced CH2-NH bond between residues 1 and 2, acetate salt
With B6 the IC50 (CXCR4 receptor [1]) was 95 nM.

Binder Ac-RR[2Nal]CY[Cit]K[dE]PYR[Cit]CR-NH2 (disulfide 4-13; also: acetate salt) [TF1] has an IC50 (CXCR4 receptor [1]) of 11 nM.

Work on Suc-R[2Nal]CY[Cit]K[dE]PYR[Cit]CR-NH2 (disulfide 3-12; also: acetate salt) [TF10] yielded an IC50 (CXCR4 receptor [1]) of 48 nM.

In the case of Glutaryl-R[2Nal]CY[Cit]K[dE]PYR[Cit]CR-NH2 (disulfide 3-12; also: acetate salt) [TF11], the IC50 (CXCR4 receptor [1]) is reported as 630 nM.

Work on H-RR[2Nal]CYRK[dK]PYE[Cit]CR-OH (disulfide 4-13 (inferred); also: acetate salt) [TE14006] yielded an IC50 (CXCR4 receptor [1]) of 5.6 nM.

With guanyl-R[2Nal]CY[Cit]K[dE]PYR[Cit]CR-NH2 (disulfide 3-12; also: acetate salt) [TF9] the IC50 (CXCR4 receptor [1]) was 250 nM.

H-RR[2Nal]CY[dE]K[dE]PYR[Cit]CR-NH2 (disulfide 4-13; also: acetate salt) [TE14013] gave an IC50 (CXCR4 receptor [1]) of 9.3 nM.

tetramethylguanyl-R[2Nal]CY[Cit]K[dE]PYR[Cit]CR-NH2 (disulfide 3-12; also: acetate salt) [TF4] gave an IC50 (CXCR4 receptor [1]) of 9.9 nM.
